Data on three molecules can be found in PMC7347597, “INTS10–INTS13–INTS14 form a functional module of Integrator that binds nucleic acids and the cleavage module” (Nature Communications, 2020).

Data set [1] concerns the target T1, INT cleavage module (His10-INTS4–INTS9–(2S)-INTS11) (human, UniProt Q96HW7 1-963; Q9NV88 1-658; Q5TA45 1-600).
T1 construct: INTS4, human; INTS9, human; INTS11, human; The tags are named in the methods of the copurification assays; also called INTS4–INTS9–INTS11; INTS4–9–11; source: insect cells (HighFive, baculovirus), coexpressed; in cell extract and purified (StrepTrap, heparin, Superose 6); not shown: His10, N-terminal, kept; tandem Strep tag (2S), N-terminal, kept; copies: + +
In words: pull-down; GST-INTS13 C-terminal constructs from E. coli lysates with insect cell extracts expressing cleavage module subunits, on glutathione sepharose; 50 mM HEPES pH 7.5, 200 mM NaCl, 2 mM DTT; Coomassie gel and Western blots. Conditions: partners not purified. (Immunoblotting shows a protein as a band on a membrane.)

Data set [2] deals with T2, INTS13-INTS14 heterodimer (Homo sapiens, UniProt Q9NVM9;Q96SY0 1-706;1-518). Nature of the data set: EMSA; FP: 10 nM RNA, 10 mM HEPES pH 7.5, 5% glycerol, 2 mM MgCl2, 50 mM NaCl or none added, temperature not stated; EMSA: 50 mM HEPES pH 7.5, 200 mM NaCl, 2 mM MgCl2, on ice, 2 uM RNA or 1 uM DNA. Conditions: protein: recombinant; tags: INTS13 N-terminal 2xStrep, HRV 3C cleavable (removed if needed); copies: 1;1; hairpin.
T2 sequence (Q9NVM9 whole entry, chain 1 of 2): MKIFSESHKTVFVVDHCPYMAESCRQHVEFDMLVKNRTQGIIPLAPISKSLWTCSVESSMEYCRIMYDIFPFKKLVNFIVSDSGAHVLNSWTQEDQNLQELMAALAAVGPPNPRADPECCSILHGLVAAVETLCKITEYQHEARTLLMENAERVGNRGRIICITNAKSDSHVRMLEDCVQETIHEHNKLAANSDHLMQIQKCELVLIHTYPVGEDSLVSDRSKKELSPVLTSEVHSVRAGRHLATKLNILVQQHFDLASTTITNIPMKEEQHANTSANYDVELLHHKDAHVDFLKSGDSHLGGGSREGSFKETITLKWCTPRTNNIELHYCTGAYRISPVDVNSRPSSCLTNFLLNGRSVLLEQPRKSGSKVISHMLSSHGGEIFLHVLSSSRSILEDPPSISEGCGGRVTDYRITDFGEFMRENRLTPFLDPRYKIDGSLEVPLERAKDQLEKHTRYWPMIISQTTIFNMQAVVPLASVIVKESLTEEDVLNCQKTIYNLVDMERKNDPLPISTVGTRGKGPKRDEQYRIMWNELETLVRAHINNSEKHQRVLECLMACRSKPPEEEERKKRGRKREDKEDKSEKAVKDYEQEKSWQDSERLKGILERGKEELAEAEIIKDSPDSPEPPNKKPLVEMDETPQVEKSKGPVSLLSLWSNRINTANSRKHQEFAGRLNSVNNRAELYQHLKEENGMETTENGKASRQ
T2 sequence (Q96SY0 whole entry, chain 2 of 2): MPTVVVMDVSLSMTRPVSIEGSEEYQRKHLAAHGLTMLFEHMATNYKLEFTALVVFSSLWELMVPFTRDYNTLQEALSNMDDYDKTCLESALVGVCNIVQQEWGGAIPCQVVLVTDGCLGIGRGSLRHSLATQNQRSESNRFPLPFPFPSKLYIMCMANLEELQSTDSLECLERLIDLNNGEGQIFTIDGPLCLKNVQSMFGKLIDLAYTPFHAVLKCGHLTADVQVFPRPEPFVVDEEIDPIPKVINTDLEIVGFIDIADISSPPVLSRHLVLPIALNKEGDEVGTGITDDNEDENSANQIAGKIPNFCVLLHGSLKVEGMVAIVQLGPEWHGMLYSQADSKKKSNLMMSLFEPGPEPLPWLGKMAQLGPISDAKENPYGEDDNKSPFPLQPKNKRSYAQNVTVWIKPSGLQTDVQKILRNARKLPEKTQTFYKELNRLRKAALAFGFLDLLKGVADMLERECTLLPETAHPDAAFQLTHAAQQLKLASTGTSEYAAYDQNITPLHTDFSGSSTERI

In data set [3] the target is T3, INTS10-INTS13-INTS14 heterotrimer (Homo sapiens, UniProt Q9NVR2;Q9NVM9;Q96SY0 1-710;1-706;1-518). The description is as above. Conditions: protein: recombinant; tags: INTS13 N-terminal 2xStrep, HRV 3C cleavable (removed if needed); copies: 1;1;1; hairpin.
T3 sequence (Q9NVR2 whole entry, chain 1 of 3): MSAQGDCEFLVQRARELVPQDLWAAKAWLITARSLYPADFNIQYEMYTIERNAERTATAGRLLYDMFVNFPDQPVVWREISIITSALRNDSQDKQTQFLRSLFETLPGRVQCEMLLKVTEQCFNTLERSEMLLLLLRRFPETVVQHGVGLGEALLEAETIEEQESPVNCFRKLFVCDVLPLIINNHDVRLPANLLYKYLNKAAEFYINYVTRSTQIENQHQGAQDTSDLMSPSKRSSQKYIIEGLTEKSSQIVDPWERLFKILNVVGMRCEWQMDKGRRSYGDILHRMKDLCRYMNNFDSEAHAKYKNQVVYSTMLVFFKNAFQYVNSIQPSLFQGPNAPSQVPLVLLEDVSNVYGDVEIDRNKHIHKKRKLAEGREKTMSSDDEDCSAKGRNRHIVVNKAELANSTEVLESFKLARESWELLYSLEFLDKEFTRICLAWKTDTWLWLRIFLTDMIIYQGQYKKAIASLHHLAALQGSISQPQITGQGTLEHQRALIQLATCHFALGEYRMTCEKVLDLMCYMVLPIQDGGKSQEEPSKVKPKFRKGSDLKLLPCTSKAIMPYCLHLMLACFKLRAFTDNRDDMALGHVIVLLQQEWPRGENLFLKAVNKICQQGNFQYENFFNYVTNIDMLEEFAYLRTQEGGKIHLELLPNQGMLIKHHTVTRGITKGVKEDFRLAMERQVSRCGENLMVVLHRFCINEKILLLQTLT
T3 sequence (Q9NVM9 whole entry, chain 2 of 3): as the sequence (Q9NVM9 whole entry, chain 1 of 2) above
T3 sequence (Q96SY0 whole entry, chain 3 of 3): as the sequence (Q96SY0 whole entry, chain 2 of 2) above
Data set [4] addresses T2, INTS13-INTS14 heterodimer. In words: fluorescence polarization; FP: 10 nM RNA, 10 mM HEPES pH 7.5, 5% glycerol, 2 mM MgCl2, 50 mM NaCl or none added, temperature not stated; EMSA: 50 mM HEPES pH 7.5, 200 mM NaCl, 2 mM MgCl2, on ice, 2 uM RNA or 1 uM DNA. Conditions: protein: recombinant; tags: INTS13 N-terminal 2xStrep, HRV 3C cleavable (removed if needed); copies: 1;1; label: 5'-6-FAM; single strand. (Fluorescence polarisation rises when a labelled molecule tumbles more slowly, as on binding a larger partner.)

In data set [5] the target is T3, INTS10-INTS13-INTS14 heterotrimer. Described as above. Conditions: protein: recombinant; tags: INTS13 N-terminal 2xStrep, HRV 3C cleavable (removed if needed); copies: 1;1;1; label: 5'-6-FAM; single strand.

T1 sequence (Q96HW7 whole entry, chain 1 of 3): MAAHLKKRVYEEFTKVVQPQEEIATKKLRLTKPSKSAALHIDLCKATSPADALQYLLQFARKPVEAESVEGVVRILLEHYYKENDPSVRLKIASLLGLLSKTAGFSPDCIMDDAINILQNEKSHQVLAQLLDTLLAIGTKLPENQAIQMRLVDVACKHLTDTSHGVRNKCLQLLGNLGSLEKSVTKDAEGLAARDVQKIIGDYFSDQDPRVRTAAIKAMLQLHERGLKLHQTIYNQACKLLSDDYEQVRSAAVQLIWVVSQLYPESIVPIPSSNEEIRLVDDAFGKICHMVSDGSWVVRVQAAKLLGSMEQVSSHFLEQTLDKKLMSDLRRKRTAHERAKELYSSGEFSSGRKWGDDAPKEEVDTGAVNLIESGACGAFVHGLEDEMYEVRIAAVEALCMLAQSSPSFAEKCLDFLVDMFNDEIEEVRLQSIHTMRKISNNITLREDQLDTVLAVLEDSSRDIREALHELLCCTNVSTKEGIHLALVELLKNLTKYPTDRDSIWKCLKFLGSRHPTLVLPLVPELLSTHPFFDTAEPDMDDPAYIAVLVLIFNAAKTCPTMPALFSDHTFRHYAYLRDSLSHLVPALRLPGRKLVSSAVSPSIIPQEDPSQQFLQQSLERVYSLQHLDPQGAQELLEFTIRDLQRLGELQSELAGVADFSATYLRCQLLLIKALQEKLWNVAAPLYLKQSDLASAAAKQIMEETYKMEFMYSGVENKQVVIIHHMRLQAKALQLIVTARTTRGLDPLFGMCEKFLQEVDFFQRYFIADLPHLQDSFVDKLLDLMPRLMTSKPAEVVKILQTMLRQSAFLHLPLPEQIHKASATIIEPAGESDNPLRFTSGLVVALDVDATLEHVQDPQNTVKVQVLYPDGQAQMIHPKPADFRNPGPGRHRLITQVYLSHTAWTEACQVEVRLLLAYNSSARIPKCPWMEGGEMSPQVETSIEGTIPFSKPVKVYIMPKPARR
T1 sequence (Q9NV88 whole entry, chain 2 of 3): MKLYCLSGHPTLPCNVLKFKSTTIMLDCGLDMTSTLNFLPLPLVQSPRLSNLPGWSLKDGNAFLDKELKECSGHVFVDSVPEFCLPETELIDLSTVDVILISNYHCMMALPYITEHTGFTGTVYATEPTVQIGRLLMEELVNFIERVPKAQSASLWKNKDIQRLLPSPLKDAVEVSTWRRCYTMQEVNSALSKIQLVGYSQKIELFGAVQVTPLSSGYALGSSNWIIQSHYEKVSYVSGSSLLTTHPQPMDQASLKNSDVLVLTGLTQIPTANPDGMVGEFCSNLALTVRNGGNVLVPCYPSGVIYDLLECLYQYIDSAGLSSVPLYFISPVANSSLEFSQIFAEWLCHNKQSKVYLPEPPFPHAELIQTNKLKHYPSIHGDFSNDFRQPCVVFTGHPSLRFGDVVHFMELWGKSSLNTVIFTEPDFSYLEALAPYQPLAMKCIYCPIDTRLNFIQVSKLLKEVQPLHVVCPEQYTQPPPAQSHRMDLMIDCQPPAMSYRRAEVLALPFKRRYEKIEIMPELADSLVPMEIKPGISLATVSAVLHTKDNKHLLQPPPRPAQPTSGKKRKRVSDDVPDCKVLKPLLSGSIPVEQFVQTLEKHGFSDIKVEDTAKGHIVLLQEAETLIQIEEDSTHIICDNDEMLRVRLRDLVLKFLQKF
T1 sequence (Q5TA45 whole entry, chain 3 of 3): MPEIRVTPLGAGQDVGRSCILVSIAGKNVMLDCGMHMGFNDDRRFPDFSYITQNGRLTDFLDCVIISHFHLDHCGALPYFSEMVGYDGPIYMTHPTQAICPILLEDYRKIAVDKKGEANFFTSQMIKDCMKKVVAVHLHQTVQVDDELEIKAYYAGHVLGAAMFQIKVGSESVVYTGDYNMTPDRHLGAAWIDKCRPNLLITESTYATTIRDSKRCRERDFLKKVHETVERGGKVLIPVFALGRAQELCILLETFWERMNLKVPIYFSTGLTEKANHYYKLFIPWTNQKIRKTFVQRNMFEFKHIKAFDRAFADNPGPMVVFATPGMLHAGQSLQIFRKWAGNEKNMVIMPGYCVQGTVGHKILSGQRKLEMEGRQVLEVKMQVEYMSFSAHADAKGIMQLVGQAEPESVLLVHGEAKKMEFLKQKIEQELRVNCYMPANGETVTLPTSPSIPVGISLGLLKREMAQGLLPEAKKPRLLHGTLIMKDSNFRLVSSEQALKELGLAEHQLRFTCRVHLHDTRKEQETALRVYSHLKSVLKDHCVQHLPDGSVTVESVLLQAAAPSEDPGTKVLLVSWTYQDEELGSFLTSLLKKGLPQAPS

B1: GST-INTS13 cleavage module-binding motif (CMBM, residues 649–694) (domain or fragment, human, UniProt Q9NVM9 649-694, looked up)
chain: GPVSLLSLWSNRINTANSRKHQEFAGRLNSVNNRAELYQHLKEENG
notes: INTS13, human, conserved C-terminal helices, residues 649–694; also called GST-CMBM; INTS13 CMBM; source: E. coli BL21 Star (DE3), in lysate; not shown: GST, N-terminal, kept
Consider B1, for which the binding result in data set [1] is “binds”.

Turning to GGGUGGGGGACUGCGUUCGCGCUUUCCCCUGGCCGG (structured_RNA) [U1 SL4], the binding result in data set [2] is recorded as “binds”. Further, the “apparent K (half saturation)” value in data set [3] is approximately 1000 nM.

Regarding UUUUUUUUUUUU (ssRNA) [U12 RNA], the Kd turned out to be 570 ± 50 nM in data set [4] and 420 ± 20 nM in data set [5].

In general, Kd refers to the concentration at which binding is half-saturated.
